Data as given in the DeepSol protein solubility set.

Assay: soluble on expression in E. coli; label from the status in PepcDB or PDB records

Sequence	soluble on expression in E. coli
PAEIHIITAARGRGKSTLAGKLAEQFAKTEQVILTAHRSSSIQKILQTASINIPFFAPDKLLNLIETKQISADHLLFIDEAACIPLPILQQLGNYFKKVILTTTTQNYEGTGRGFKLKLVKQLHRTTKEWQLFQPLRWSNHDRLEQFTNELLLLN	not soluble
MGSDKIHHHHHHMANVVLFGLQDYAELAHYYLEHDSPHQVAAFCVDRQYIPDSGTFKNLPVVAFEDVAHTHPPGDFSFFAPMSPKHMNRDRERIFNAIKAHGYTLISYVSSRATKFDNEIGENCFILEDNTLQPFTRIGDNVVLWSGNHIGHHGRIGDHVTMTSHVVMSGHCDIGAYSFVGVNATLRDGVTIGEGTFVAMASAITKNTEPWSVYRGNPAVKLTMPSTEVKF	not soluble
MGSDKIHHHHHHMDINFEYYKIFYYVAKYCNFTKAARALGNSQPNVTRAMNNLEQQINSILFIRNNRGVQLTPEGERLYAHVSAAMSQILAAEEELSDSIGLSHGSVSIGASETALNIYLLDRLKPFHMAYPGIRLKIYNHSTPQAINAVKNGMIDFAVVSTPAEVEAPLKMIKLGSFQEILVGGTTFTALGSQTLSLKELHNYPLIGLGRETMTFQFFNRLFMSHGLEFAPDTETATTDQILPLVKSELGLAFMPKPMAEAAIANREIVEIALEEEIPQRNICMVYDIHQPISAAARELKKVISDSHKV	not soluble
MDKLKIIMEKGTERLKRGFAKMVKGGVIMDVTNAEQARIAEEAGAVAVMALHKVPADIRKAGGVARMAPVEKIQEIMDAVTIPVMAKCRIGHEAEARILEALGVDMIDESEVLTPADPFFHIYKKKFTAPFVCGARNLGEAVRRIWEGAAMIRTKGEAGTGNIIEAVRHVRLVNENIRLIQRMTDEEIYGVAEKFAEPYLRLAFSVKEISGLPKRVLENEPIYEGFTYREIVEDIYKILLEIKKLGRLPVVNFAAGGVATPADAALMMAMGMDGVFVGSGIFKSSNPPKMARAIVEAVNHWDEPDVLAEISREIGEPMRGQAIEELQVRMEERGILEHHHHHH	not soluble
MGSDKIHHHHHHMARFMGSETEYGISTPSAPFLSPIVTSTHAVVAYSTARGFGEHRVRWDYAQESPLRDTRGFDLRRYHQAPVVDPHAIGVANVFVPNGARFYVDHAHPEYSSPEVTNAWDAMVYDAAGDHILMQAVSDVASFTSQNRSVLDGHDPCPALKIYKNNVDGKGASYGSHENYLYSRETDFDVLAQALIPFFVCRQVIIGAGRVGLGPQGDKPGFQVSQRADYIEQEISLETTLNRGIINTRDEPHTDADHWGRLHVIIGDANMSQTANFLKFGMTSLVLDAIEAGVDFSELKLKNAVSEVAKVSHDLSLTHQLRLADGSELTAIDILRRYLDKVQPFAETPVEQRVTALWGEVLGLLENDLLSTSHLLDWTAKLALIKSFEARGLSINDPKMYLIDLQYSDIDPQKSLYHALVSKGRMKTLCSAQDIADAAATPPQDSRAYFRGRVMDKFGESVLAANWESLIVATSSAKEYRVHTSGLDTLTREEAGELVEKSATIDELIEGLEKENLTPLTAIQAI	not soluble
MGSDKIHHHHHHPSEEVAKSGNPVFEGWYADPEGIIYGDTYWIYPTTSDLYEKQTFFDCFSSKDLVSWTKHTAILDTAEVKWAKIAMWAPSVINKDGKYYLFFGANDVHEGEIGGIGVAVSDRPEGPYKDLLGKPLINEIVNGAQPIDQFVFHDADNDEYYMYYGGWKHCNMVRLNKDFTGLIPFEDGTIYKEVTPKDYVEGPFMFKKNGKYYFMWSEGGWTGPDYKVAYAISDSPFGPFNRIGEVLRQNFDMANGAGHHSIMHVPNSEDYYIVYHRRPAGVKTRDHRETCIEKMTFNEEGLINPVEITTEGVEARTIQ	not soluble
MLEEEQALLEKVVETLSNDIEEKEEKIEKLRRSYTNGNGALANIYEDYRSGFKSGIGARPGR	not soluble
MGSDKIHHHHHHEHKDLCYDHPHFATVRVVFDWTKISNHDKPEGMRVVFYPTDDESNTWIFDFPGGEDGEVELPENDYRVICFNYDTDGMVWKENGSYTLFTADTRDVRSPDNQTMAVTPPWLCGDHIDRVILKDIPEGSTKIIRLTPVNMVCHYTYEVNGIRGLDRVADLRAALSGMSGSLNMSGDSLPADLSESLLFDGMVSRNQIIGGFYTFGHSALEGEPNVFRLYLKNRSGSMSVLEQDVSDQVHDVPVAGHIGDVHLVLNFDYEVPSEPGSGGPGFDVDVDDWDDVNVDIVL	not soluble
MSLSTSSKVVRLDVSRSQQEAVKGVKLPALLIKLRDRCGEHNRKLLDRLFEQVDDSFFDLADKSATNSEQALFFDAMREIRLKKERIAALFMQYYNRDFQFLEVQKPGMLKANFDPQNLTLVQEDKLEEQVAIDNMVNRFKSEIGRDLEHLTIRLDSLLFDVSVEEENNPLGPLRMVTNFVTACAELELGIRAKLVFFKLFEKHVLTQNKAVLEAANKFLAEQGVMPDLSASRSVRRTGVNLPHASGSVIDQNTGAVGDYNEGGWDPQIDPLQYMRQFSDAQMAGAAGAAVNLPVVQQTALLNLLSRLQTTNKAPATALSDNGLINFMGLMERAVLSKEGQPRASVGRLDQDVMNLVTMLFEFILDDRQLPAAIRAVIARLQIPILKVALLDRTFFNQGGHSARRLLNEMATASIGWTEKAPGEPDAFLAKLEEVVQRLVTEFDNDITIFDEVLEDFIRFRESDKKRRHLLEQRTRDAEVGRAKSDAAKKVVQDVLNDMLAGKNIPALVMEVLKEGWSNYMVLLQLKSGREHPDWLQAQSVAARLIQGCDPDDTSGEAPEVAAVEKLMEELRVGLQQTAYKPFELDKTLRQLQKVLSETTQQRLAKEVTLDDEGHHHHHH	soluble
MGHHHHHHSHMEAPGPAQAAAAESNSREVTEDAADWAPALCPSPEARSPEAPAYRLQDCDALVTMGTGTFGRVHLVKEKTAKHFFALKVMSIPDVIRRKQEQHVHNEKSVLKEVSHPFLIRLFWTWHEERFLYMLMEYVPGGELFSYLRNRGHFSSTTGLFYSAEIICAIEYLHSKEIVYRDLKPENILLDRDGHIKLTDFGFAKKLVDRTWTLCGTPEYLAPEVIQSKGHGRAVDWWALGILIFEMLSGFPPFFDDNPFGIYQKILAGKLYFPRHLDFHVKTGRMM	not soluble
MARKRIITPEKKELIRNLISEYNITSAKDLQEALKDLLGDTIQNMLEAELDEHLGYEKYESTEEAKSNYRNGYTSKTLKSSVGQVEIDIPRDRNAEFEPKIVPRYKRDISEIENKIIAMYARGMSTREINEQIQEIYGFEVSAEMVSKITDKILPEIEEWQKRPLGEVYPIVFIDAIHFSVKNDGIVGKKAIYIVLAIDIEGQKDVIGIYVGENESSKFWLSVLNDLKNRGVKDILILCADALSGIKDAINAAFPNTEYQRCIVHQIRNTLKYVSDKDRKEFARDLKRIYTAPNEKAGYDQMLEVSEKWEKKYPAAMKSWKSNWDVICPFFKYSEELRKIMYTTNTIESLNSSYRRINKSRTVFPGDQSLLKSIYLATVKITSKWTMRYKNWGLILGQLQIMFEGRI	not soluble
NFDTNMFKLENYVKEKYSLESLEIIPNEFDDTPTILSERISQVAAGVLRNLIDDNMKIGFSWGKSLSNLVDLIHSKSVRNVHFYPLAGGPSHIHAKYHVNTLIYEMSRKFHGECTFMNATIVQENKLLADGILQSRYFENLKNSWKDLDIAVVGIGDFSNKGKHQWLDMLTEDDFKELTKVKTVGEICCRFFDSKGKEVYENLQERTIAISLEDLKNIPQSLAVAYGDTKVSSILSVLRANLVNHLITDKNTILKVLEEDGDL	soluble
MGNTDKLMNQIFELKFTSKSLQRQARKCEKEERSEKLKVKKAIEKGNMDGARIYAENAIRKRSEQMNYLRLSSRLDAVVARLDTQAKMATITKSMTNIVKSLESSLTTGNLQKMSETMDSFEKQFVNMEVQAEFMDNAMAGSTSLSTPEGEVNSLMQQVADDYGLEVSVGLPQPAGHAIPTKTEEKVEEDDLTRRLAELKARG	not soluble
MGSDKIHHHHHHMKIKCIITDDEPIARKGLRGYIEKVDFLTLTGECEDAVQLNTILKTQEIDLLFLDIEMPEMTGIELLSNLTNPPKVIIVSAYEQYALKGYEFNVVDYLLKPVSFDRFIKSVNKIYDLLQTEQKEKNDYIFVKSNKLLKKILFKDILYIESMENYVVIQTVSCKEVVYTTLKQLNDSLPKDVFQQTHRSYIVNLEKVTAIDGNQLTLSSYKIPVARTFRDSIFNLILNNRLIIKS	not soluble
MRHNIFYNRREFQMIDNFMQVLKLIKEKRTNNVVKKSDWDKGDLYKTLVHDKLPKQLKVHIKEDKYSVVGKVATGNYSKVPWISIYDENITKETKDGYYLVYLFHPEGEGIYLSLNQGWSKISDMFPRDKNAAKQRALTLSSELNKYITSNEFNTGRFYYAENKDSSYDLKNDYPSGYSHGSIRFKYYDLNEGFTEEDMLEDLKKFLELFNELASKVTKTSYDSLVNSIDEIQEDSEIEEIRTAQKDKTLKEVEAPKGIIPKYKKGVSKTTKNDSEIEKSNKENKLTGKVGEKLALNYFNELIDNKIDEDKKEQFRNILNDNPGSQHGHGYDLVAFDPTNTDKAVEKFIEIKTSTSSSIEEPFFMSLNEMFAMKEYKQKYLILRIFNVSGKEPQFYFIDPYANYSEFKDVDDLIDKVFNVEAIQYKVFGEKLEHHHHHH	not soluble
MGTASYPDPEIRALAEKITANATSDLEKVKAIESYLKNNYINTYVERTDVKEFLFKTKRGTAREFATAFVLLAQSIGIPARAVFGYLADPVETNQTIFASDAYVWAEVRFKEGWMEFDPAPEGRG	soluble
MTDKNPISEAKRYLDNARTILKEKGNKENRFYRDPKYVKMAGHTAYAGVLLALDACFGDKTKGRKDVGWYKEQLSGMDKTALKNFISAYDLLHVAMSYDGNTDSDIAKLGLTRADEIILWVEQRTVTC	soluble
MSPAQSKPVESMTVFNTEEVDTKKQPMFFGKPLGVQRYDSYKYPVFDKLTQQQLGYFWRPEEVSLQKDRGDYQQLTPEQKHIFTSNLKYQIMLDSVQGRAPGMAFAPYCSLPELEGCINVWQFMEMIHSRSYTYIIKNVYSDPSEVFDTIIKDTNILQRAESVTKSYDDFVNDAHEYDSGNAWKFAREGHPAGTLDRRELKRKLYRAIANVNILEGIRFYVSFACSFAFGENKLMEGSAKILSLISRDESQHLVITQQILKKWADGDDPEMQEIAKEEKSFVKDMFRNTVNEEKAWADYLFKEGSMIGLNARLLNNYVEWIANRRMKAIGLDPIYDQPLRNNPLPWTEHWLNSKGQQNAPQETEIESYVIGGIKQDVKGDSFAGFKL	not soluble
SGSHTALIEVKGMIADDEPASADNIVTALRAAFKDEGTKGIVLRINSPGGSPVQSGYIYDEIRRLRGEHPNVKVYAVISDLGASGAYYIASAADQIYADKASLVGSIGVTAASFGFVGTMEKLGVERRVYTSGEHKSFLDPFQPQKPEETQFWQQVLDTTHKQFIDSVKKGRGDRLKVEGHPELFSGLVWSGEQALQLGLIDGLGNASYVAREVVKEKKIEDYTVQESPFDRFAKKFGASVAERLALWMGWQGPVLR	not soluble
MAHHHHHHMEKKKKESTIKISLNINTKFNESYLDEQNDIINEALIKNNNKEIIHSLNLIENIRQGTFDYKDLREVYFMNDNDLFSMLNDKKASEEKGKGKEDAHNNNNIDNKICNNDKVGDKNKKLSNNNNNNGNDLNIQIEGDQNYNFNKNNETNIFVLDNDVDKVCIIRFPFSVSKDIKKYLLNKNLDMVIQPTTLLNSRFFLIHFKNINKKFHGILLELSTHIEIHKTLDRNNLYKSNDVSQMIYVYEHNTNSKELLKKFINNNFELCGGISKKLNHFIFQNHTKLFKYHDIYFAEKLIYEYLNTPYYDYFDLYVKTLNEMHNHIIMEKENNNKQNEIVDETTDLAAILGSLDNSYNIMNLIEKQDGDIDFEALLNYDIEKENYESDVSDLLLGGTYYLQKK	not soluble
